T1: α2-antiplasmin, P08697
T1 chain: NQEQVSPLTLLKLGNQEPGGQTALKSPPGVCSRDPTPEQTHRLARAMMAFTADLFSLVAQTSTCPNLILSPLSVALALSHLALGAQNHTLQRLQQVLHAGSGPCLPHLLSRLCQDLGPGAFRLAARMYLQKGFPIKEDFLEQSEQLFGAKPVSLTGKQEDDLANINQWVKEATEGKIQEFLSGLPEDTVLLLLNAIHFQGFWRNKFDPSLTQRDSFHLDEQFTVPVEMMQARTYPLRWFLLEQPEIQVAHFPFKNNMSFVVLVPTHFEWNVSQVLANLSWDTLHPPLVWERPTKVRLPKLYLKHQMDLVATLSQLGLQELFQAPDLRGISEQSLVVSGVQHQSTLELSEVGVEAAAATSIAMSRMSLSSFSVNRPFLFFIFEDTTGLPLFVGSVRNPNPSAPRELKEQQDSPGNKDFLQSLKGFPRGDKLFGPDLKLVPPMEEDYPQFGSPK

T2: fibrin (clot formed from purified fibrinogen with α-thrombin), P02671
T2 chain 1: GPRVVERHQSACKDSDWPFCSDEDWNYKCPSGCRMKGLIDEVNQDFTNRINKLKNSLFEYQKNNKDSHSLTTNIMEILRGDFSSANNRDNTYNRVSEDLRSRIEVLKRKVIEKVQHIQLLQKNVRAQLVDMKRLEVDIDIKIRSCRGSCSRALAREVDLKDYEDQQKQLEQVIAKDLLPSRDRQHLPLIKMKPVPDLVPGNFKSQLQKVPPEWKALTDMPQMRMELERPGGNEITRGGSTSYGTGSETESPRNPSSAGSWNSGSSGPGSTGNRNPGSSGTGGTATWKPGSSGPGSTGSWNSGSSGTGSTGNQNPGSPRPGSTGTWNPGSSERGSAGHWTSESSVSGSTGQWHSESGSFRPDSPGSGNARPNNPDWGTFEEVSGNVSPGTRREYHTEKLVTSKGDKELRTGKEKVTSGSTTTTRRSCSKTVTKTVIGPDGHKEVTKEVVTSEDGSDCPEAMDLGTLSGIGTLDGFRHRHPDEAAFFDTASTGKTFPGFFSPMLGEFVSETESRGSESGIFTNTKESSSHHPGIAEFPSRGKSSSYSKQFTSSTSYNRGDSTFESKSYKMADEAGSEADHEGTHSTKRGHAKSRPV
T2 chain 2: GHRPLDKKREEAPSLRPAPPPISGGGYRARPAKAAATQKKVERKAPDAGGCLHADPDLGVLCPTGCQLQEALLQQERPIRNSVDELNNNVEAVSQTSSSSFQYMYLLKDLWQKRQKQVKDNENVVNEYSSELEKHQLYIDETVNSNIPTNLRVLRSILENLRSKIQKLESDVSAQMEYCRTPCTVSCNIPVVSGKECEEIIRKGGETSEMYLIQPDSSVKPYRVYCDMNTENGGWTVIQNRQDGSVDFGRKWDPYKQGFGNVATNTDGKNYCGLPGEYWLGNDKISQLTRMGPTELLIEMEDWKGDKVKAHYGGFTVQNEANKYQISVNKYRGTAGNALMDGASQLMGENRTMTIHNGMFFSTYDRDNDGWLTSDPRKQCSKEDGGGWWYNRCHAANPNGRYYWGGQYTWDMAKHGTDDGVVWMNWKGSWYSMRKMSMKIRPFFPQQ
T2 chain 3: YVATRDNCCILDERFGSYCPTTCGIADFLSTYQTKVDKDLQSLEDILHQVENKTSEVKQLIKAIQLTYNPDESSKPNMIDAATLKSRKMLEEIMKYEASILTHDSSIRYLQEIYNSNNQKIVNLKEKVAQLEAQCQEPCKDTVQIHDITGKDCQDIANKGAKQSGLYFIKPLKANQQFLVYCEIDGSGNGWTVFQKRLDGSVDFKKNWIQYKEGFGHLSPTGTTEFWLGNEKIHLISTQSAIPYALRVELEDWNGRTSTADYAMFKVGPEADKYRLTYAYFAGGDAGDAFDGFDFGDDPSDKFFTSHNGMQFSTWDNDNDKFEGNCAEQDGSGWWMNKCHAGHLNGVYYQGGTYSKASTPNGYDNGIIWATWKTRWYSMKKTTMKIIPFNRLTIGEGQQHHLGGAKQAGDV

B1: Lemna-derived plasmin from transgenic line BAP12-B2-150 (aglycosylated plasmin derived from mature human plasminogen with the N289D substitution) (protein)
chain 1: KVYLSECKTGNGKNYRGTMSKTKNGITCQKWSSTSPHRPRFSPATHPSEGLEENYCRNPDNDPQGPWCYTTDPEKRYDYCDILECEEECMHCSGENYDGKISKTMSGLECQAWDSQSPHAHGYIPSKFPNKNLKKNYCRNPDRELRPWCFTTDPNKRWELCDIPRCTTPPPSSGPTYQCLKGTGENYRGNVAVTVSGHTCQHWSAQTPHTHDRTPENFPCKNLDENYCRNPDGKRAPWCHTTNSQVRWEYCKIPSCDSSPVSTEQLAPTAPPELTPVVQDCYHGDGQSYRGTSSTTTTGKKCQSWSSMTPHRHQKTPENYPNAGLTMNYCRNPDADKGPWCFTTDPSVRWEYCNLKKCSGTEASVVAPPPVVLLPDVETPSEEDCMFGNGKGYRGKRATTVTGTPCQDWAAQEPHRHSIFTPETNPRAGLEKNYCRNPDGDVGGPWCYTTNPRKLYDYCDVPQCAAPSFDCGKPQVEPKKCPGR
chain 2: VVGGCVAHPHSWPWQVSLRTRFGMHFCGGTLISPEWVLTAAHCLEKSPRPSSYKVILGAHQEVNLEPHVQEIEVSRLFLEPTRKDIALLKLSSPAVITDKVIPACLPSPNYVVADRTECFVTGWGETQGTFGAGLLKEAQLPVIENKVCNRYEFLNGRVQSTELCAGHLAGGTDSCQGDSGGPLVCFEKDKYILQGVTSWGLGCARPNKPGVYVRVSRFVTWIEGVMRNN
B2: Lemna-derived plasmin from transgenic line BAP01-B2-230 (derived from mature human plasminogen with the N-linked glycosylation site Asn-289) (protein)
chain 1: KVYLSECKTGNGKNYRGTMSKTKNGITCQKWSSTSPHRPRFSPATHPSEGLEENYCRNPDNDPQGPWCYTTDPEKRYDYCDILECEEECMHCSGENYDGKISKTMSGLECQAWDSQSPHAHGYIPSKFPNKNLKKNYCRNPDRELRPWCFTTDPNKRWELCDIPRCTTPPPSSGPTYQCLKGTGENYRGNVAVTVSGHTCQHWSAQTPHTHNRTPENFPCKNLDENYCRNPDGKRAPWCHTTNSQVRWEYCKIPSCDSSPVSTEQLAPTAPPELTPVVQDCYHGDGQSYRGTSSTTTTGKKCQSWSSMTPHRHQKTPENYPNAGLTMNYCRNPDADKGPWCFTTDPSVRWEYCNLKKCSGTEASVVAPPPVVLLPDVETPSEEDCMFGNGKGYRGKRATTVTGTPCQDWAAQEPHRHSIFTPETNPRAGLEKNYCRNPDGDVGGPWCYTTNPRKLYDYCDVPQCAAPSFDCGKPQVEPKKCPGR
chain 2: VVGGCVAHPHSWPWQVSLRTRFGMHFCGGTLISPEWVLTAAHCLEKSPRPSSYKVILGAHQEVNLEPHVQEIEVSRLFLEPTRKDIALLKLSSPAVITDKVIPACLPSPNYVVADRTECFVTGWGETQGTFGAGLLKEAQLPVIENKVCNRYEFLNGRVQSTELCAGHLAGGTDSCQGDSGGPLVCFEKDKYILQGVTSWGLGCARPNKPGVYVRVSRFVTWIEGVMRNN

Assays:
[1] = molecular target: T1, α2-antiplasmin, P08697
[2] = molecular target: T2, fibrin (clot formed from purified …)

Protein | plasmin activity (S-2403 hydrolysis at 405 nm) after 30 minutes pre-incubation with α2-AP, plasmin:α2-AP molar ratio of 1:1 [1] | fibrin clot lysis (decrease of turbidity at 340 nm), plasmin at 500, 250, 125 and 62 nM [2]
B1 | no plasmin activity was detected for human, BAP12-B2-150, or BAP01-B1-230 plasmin, indicating that the inhibition was complete | There was no evidence of a difference between fibrinolysis induced by plasmin derived from BAP01-B2-230 and BAP12-B2-150; their respective lysis profiles were very similar for all four plasmin concentrations
B2 | no plasmin activity was detected for human, BAP12-B2-150, or BAP01-B1-230 plasmin, indicating that the inhibition was complete | There was no evidence of a difference between fibrinolysis induced by plasmin derived from BAP01-B2-230 and BAP12-B2-150; their respective lysis profiles were very similar for all four plasmin concentrations
